Measurements taken from article doi:10.1101/2025.08.26.672322.
One block for each substance: values may come before it.

Assays:
Gephyrin P1 wt [1] = experiment: SEC
[2] = target: LSβ, fusion protein of lumazine synthase and GlyR β-subunit ICD (pentameric GlyR model); experiment: co-sedimentation
Gephyrin Δ199-233 [3] = experiment: SEC
Gephyrin Δ199-233 [4] = experiment: ITC
Gephyrin P1 wt [5] = experiment: ITC

- stoichiometry N (Gephyrin P1 wt [1]): 3
Substance: Gephyrin P1 wt (natural protein)

- gephyrin in the pelleted fraction, fold of wt [2]: 2 fold
- stoichiometry N (Gephyrin Δ199-233 [3]): 3
Substance: Gephyrin Δ199-233 (natural protein)

- KD high-affinity site (Gephyrin Δ199-233 [4]): 50 nM
- KD low-affinity site (Gephyrin Δ199-233 [4]): 1540 nM
- KD high-affinity site (Gephyrin P1 wt [5]): 63 nM
- KD low-affinity site (Gephyrin P1 wt [5]): 1830 nM
Substance: GlyR β-subunit ICD peptide (domain or fragment)
